Assay results published in PMC2275666 (The EMBO Journal, 2008).

Experiments:
Assay in all cases: pull-down
6H–hTFIIEα V372D = target: T1, 6H–hTFIIEα V372D (human, UniProt P29083 1-439, V372D)
T1 sequence: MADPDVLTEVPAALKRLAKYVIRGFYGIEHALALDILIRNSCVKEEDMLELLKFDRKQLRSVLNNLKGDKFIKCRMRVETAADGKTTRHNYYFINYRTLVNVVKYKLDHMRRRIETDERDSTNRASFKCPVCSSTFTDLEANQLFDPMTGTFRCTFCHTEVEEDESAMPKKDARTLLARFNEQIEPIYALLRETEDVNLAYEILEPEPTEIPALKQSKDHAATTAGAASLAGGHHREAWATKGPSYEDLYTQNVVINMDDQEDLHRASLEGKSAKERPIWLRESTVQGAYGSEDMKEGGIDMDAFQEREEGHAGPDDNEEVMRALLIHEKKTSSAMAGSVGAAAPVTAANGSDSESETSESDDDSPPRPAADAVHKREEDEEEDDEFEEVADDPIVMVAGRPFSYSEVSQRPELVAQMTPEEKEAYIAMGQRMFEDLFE

6H–hTFIIEα D380A = target: T2, 6H–hTFIIEα D380A (human, UniProt P29083 1-439, D380A)
T2 sequence: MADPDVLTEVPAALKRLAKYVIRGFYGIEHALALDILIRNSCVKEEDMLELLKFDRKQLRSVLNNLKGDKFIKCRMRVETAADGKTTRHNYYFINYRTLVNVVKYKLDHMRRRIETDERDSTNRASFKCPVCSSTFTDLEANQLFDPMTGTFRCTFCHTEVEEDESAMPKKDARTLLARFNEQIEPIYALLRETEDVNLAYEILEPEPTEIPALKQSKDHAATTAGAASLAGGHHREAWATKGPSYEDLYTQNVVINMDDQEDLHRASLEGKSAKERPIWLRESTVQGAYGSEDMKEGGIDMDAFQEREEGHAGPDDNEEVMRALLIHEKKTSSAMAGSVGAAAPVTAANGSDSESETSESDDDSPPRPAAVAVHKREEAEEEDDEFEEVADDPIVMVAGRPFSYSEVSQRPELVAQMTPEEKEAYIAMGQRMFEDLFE

[1] = target: T3, 6H–hTFIIEα wild type (full-length hTFIIEα) (human, UniProt P29083 1-439)
T3 sequence: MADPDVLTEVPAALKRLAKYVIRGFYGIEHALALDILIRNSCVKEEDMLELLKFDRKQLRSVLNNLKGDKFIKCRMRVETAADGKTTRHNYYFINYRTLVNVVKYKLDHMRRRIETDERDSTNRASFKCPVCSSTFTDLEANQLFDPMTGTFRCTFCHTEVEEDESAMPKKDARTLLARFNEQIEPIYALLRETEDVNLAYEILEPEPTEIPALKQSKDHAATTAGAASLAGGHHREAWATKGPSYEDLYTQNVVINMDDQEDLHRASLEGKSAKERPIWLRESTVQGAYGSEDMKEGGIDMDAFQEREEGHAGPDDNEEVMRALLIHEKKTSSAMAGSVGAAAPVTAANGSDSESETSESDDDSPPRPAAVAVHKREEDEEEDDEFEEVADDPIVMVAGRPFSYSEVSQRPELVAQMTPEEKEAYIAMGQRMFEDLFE

6H–hTFIIEα F387A = target: T4, 6H–hTFIIEα F387A (human, UniProt P29083 1-439, F387A)
T4 sequence: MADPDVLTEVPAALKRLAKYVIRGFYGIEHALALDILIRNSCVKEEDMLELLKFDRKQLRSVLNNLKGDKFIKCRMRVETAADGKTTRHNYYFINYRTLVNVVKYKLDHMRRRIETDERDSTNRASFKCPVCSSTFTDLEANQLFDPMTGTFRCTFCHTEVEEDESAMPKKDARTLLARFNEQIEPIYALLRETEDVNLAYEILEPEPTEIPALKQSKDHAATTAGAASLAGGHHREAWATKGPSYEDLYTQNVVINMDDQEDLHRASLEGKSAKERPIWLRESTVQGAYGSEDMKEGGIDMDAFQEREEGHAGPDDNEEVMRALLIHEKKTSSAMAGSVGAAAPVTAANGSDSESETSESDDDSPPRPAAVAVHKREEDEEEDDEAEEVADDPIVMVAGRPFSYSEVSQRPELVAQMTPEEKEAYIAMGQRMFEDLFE

6H–hTFIIEα V390K = target: T5, 6H–hTFIIEα V390K (human, UniProt P29083 1-439, V390K)
T5 sequence: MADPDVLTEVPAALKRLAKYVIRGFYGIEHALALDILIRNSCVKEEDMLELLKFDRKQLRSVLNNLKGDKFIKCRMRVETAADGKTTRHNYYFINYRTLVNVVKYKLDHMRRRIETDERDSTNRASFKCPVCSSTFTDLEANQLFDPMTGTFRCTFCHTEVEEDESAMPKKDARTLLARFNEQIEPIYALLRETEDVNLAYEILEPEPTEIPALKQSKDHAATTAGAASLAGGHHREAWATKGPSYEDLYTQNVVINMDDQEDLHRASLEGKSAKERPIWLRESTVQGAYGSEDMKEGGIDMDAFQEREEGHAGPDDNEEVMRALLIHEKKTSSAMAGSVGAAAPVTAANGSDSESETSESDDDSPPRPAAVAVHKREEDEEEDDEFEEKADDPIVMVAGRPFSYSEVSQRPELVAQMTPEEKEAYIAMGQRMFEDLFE

Measured: binding result

B1: GST-tagged hTFIIEβ (natural protein)
chain: MDPSLLRERELFKKRALSTPVVEKRSASSESSSSSSKKKKTKVEHGGSSGSKQNSDHSNGSFNLKALSGSSGYKFGVLAKIVNYMKTRHQRGDTHPLTLDEILDETQHLDIGLKQKQWLMTEALVNNPKIEVIDGKYAFKPKYNVRDKKALLRLLDQHDQRGLGGILLEDIEEALPNSQKAVKALGDQILFVNRPDKKKILFFNDKSCQFSVDEEFQKLWRSVTVDSMDEEKIEEYLKRQGISSMQESGPKKVAPIQRRKKPASQKKRRFKTHNEHLAGVLKDYSDITSSK
binds: all assays above
